Laboratory results from the supplement of paper PMC9170038.

Tested on: MS2 coat protein
Experiment: apparent KD of MS2 coat protein; higher = weaker reporter binding
Settings: Eterna round: R107
Method in brief: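 Designed RNA switches were made by on-chip transcription from Illumina sequencing clusters and then titrated with SNAP-549-labelled MS2 coat protein. Twofold steps ran from 0.7 or 1.5 nM to 3 µM, each lasting 0.8–1.5 h early and 10–20 min late, in 100 mM Tris-HCl pH 7.5, 80 mM KCl, 4 mM MgCl2, without or with constant ligand. Apparent KD is the per-design median of normalised cluster binding-curve fits.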

[1] = input ligand: theophylline 20 uM
[2] = input ligand: tryptophan 2.4 mM
[3] = input ligand: theophylline 2 mM

Row | Sequence | apparent KD of MS2 coat protein (input ligand: arginine 13.2 mM) | apparent KD of MS2 coat protein [1] | apparent KD of MS2 coat protein [2] | apparent KD of MS2 coat protein (input ligand: none) | apparent KD of MS2 coat protein [3]
1 | AAAACACAUGAGGAUCACCCAUGUCGUGAUACCAGUCAACAUGAGGACCCUUGGCAGCAUAAAAUGGGUAACAUGAGGAUAACCC [AstrosEXyTheA#3] | 75.4 nM | 105 nM | 101 nM | – | –
2 | AAUAACAUGAGGAUCACCCAUGUAAAAGAUACCAGAGUGAUGAUCCUCCCUUGGCAGCUUAACGCUGAUUGGAAACAAUCAGCGA [Mat - Same State Theophlline A - Mod of Eli - D1] | 34.1 nM | 268 nM | 67.6 nM | – | –
3 | GGGCUUGUGGUGCGGCGUGUUCCGCUCCGUCGAGGACCGGUACGGCCGCCACUCGACAUGAGGAUCACCCAUGUGCGAGCGCGCG [#1 Exclusion - Tryptophan A Attempt #7 (HarryS)] | 11.4 nM | 16.1 nM | 25.1 nM | 17.3 nM | 15.4 nM
4 | AACAGGGCUCGCACGAAGCCCUAAGGUGAUACCAGCACAUGUAAGUGCCCUUGGCAGCACGGUACAUGAGGAUCACCCAUGUAGA [Isleenen] | 19.7 nM | 182 nM | 59.4 nM | – | –
5 | ACAUGAGGAUCACCCAUGUAGUGGCACGAUACCAGCUGAUCCCGUGGCCCUUGGCAGCGUCCGGUGUGGUCUGCCGGGAUGGAGC [WBWMULLIN] | 25 nM | 40.7 nM | 24.8 nM | – | –
6 | AACGCGGUGAUGGUAGCCGGACGCUAGGUACGAGGACCGGUACGGCCGCCACUCGGAGUCCUACGACAUGAGGAUCACCCAUGUA [Same State Trp A GF15] | 53.9 nM | 140 nM | – | – | 145 nM
7 | CACAUGAGGAUCACCCAUGUCUGAACUGAAGGAGCGCUAAACAAGGCAGGUAGGUCGCGGAAUCCUGUGUGCAUAUGCACACGGG [9.W] | 30.6 nM | 27 nM | 21.5 nM | 18 nM | 26.1 nM
8 | CUAUAUAUAAGAAGGAGCGUCGAAAAUGGGUAAACAUGAGGAUCACCCAUGUAAAGGGAACGACAGGUAGGUCGCUUAUAUAUAG [AstromonsSSArgB#5] | 151 nM | 169 nM | 206 nM | 191 nM | 184 nM
9 | UAUAGUGUGAUGGAUACCAGCAGAGAAAACGUUUAUCCUAACAUGAGGAUCACCCAUGUAUGCCCUUGGCAGCUGUUGUGUUAUA [8.O] | 28.9 nM | 42.5 nM | 30.3 nM | – | –
10 | GGCAGUCAUAGCAGGGCAAAUAUACUCGAAGGAGCGUCAUAGUAGGCAGGUAGGUCGCGAGACAUGAGGAUCACCCAUGUAGAGA [uuumullin] | 26.1 nM | 46 nM | 49.3 nM | 68.9 nM | 66 nM
11 | AUAUGAAAGAGUGAUACCAGACUACAUGAGGAUCACCCAUGUGACAUUUAAAUAUCAUUUGUCCCUUGGCAGCACAUUAAGUACA [JR_Nu_ExcTheophyB_Sub021] | 35.7 nM | 46.9 nM | 43 nM | – | –
12 | ACUCGACCAUCAGCCAUUUGUGAAUCACGGCGAGGACCGGUACGGCCGCCACUCGACAUGAGGAUCACCCAUGUAAGACCGGUGU [vmullin3] | 24 nM | 37.8 nM | – | – | 39.6 nM
13 | GGUAUGUAUUCGGAAACGAAUGCAUACCAACGAGGACCGGUACGGCCGCCACUCGGCGGCGAUCAACAUGAGGAUCACCCAUGUA [Ex Tryptophan A 3] | 26.2 nM | 43.7 nM | – | – | 42.4 nM
14 | UUUUUUUUGGGAAGGAGCGGGAACAUGUGGAUCUCCCAUGUACAUGAGGAUCACCCAUGUACCCAGGUAGGUCGCUCAUUUUUUU [Exclusion - Arginine B] | 28.4 nM | 38.6 nM | 26 nM | 25.8 nM | 37.8 nM
15 | UUAAUCAUAUUAGAAAACUAAUAUGCAGAAGGAGCGUGAUAAAACACAGGUAGGUCGCUGAAGGGAACAUGAGGAUCACCCAUGU [AstrosSSArgA#8] | 26.5 nM | 32.7 nM | 26 nM | 25.7 nM | 33 nM
16 | ACGGAGAUUGCUAAAUGUUGGCGAGCGGAUACCAGCCUAUAAUCGGGCCCUUGGCAGCCGACAUGAGGAUCACCCAUGUAAACAA [Gelelaor] | 12.3 nM | 98.9 nM | 58.6 nM | 121 nM | 87.3 nM
17 | UAACAUGAGGAUCACCCAUGUUUGGAGAAACGAGGACCGGUACGGCCGCCACUCGAGGAGUGGAUGAGAAGUGGGAUAGAGUGAU [Same State Trp A GF6] | 19.2 nM | 19.6 nM | 15.1 nM | 19.6 nM | 17.5 nM
18 | GAUGAUAUUGCAGAUACCAGACACAUGAGGAUCACCCAUGUCGCUGGGUCGCUGGGUCGUGUCCCUUGGCAGCUGCGAUAUCAUC [Tibet] | 16.3 nM | 47.8 nM | 21.4 nM | 20.3 nM | 339 nM
19 | UUGACAUGAGGAUCACCCAUGUAAACUGAAGGAGCGUCGAAAAUGACAGGUAGGUCGCAGAAUAAUAAUGGUGAUCGUAAAUAUU [#12 Exclusion - Arginine A] | 42.6 nM | 79.9 nM | 63 nM | 79 nM | 83.9 nM
20 | ACAUGAGGAUCACCCAUGUAAUUUACAGAAGGAGCGUGAUGGAUCACAGGUAGGUCGCUGUACUGCGAAAGCACUCUCAUGAAUA [JR_Nu_SSArginiA_Sub025] | 18.6 nM | 25.3 nM | 19 nM | 16.8 nM | 19.7 nM

Row | Sequence | apparent KD of MS2 coat protein (input ligand: arginine 13.2 mM) | apparent KD of MS2 coat protein [1] | apparent KD of MS2 coat protein [2] | apparent KD of MS2 coat protein (input ligand: none) | apparent KD of MS2 coat protein [3]
21 | ACAUGAGGAUCACCCAUGUAUUACCGGGAAGGAGCGCGUAAGGACGCAGGUAGGUCGCUCGGCGUCUGGCCGCAAGGCUGGACGA [#1 Same State - Arginine A Attempt #18 (HarryS)] | 12.6 nM | 21.3 nM | 15.9 nM | 15.5 nM | 15.2 nM
22 | GGCCAUGGAAACAUGGCGGCGGCAUAUGCGCGAGGACCGGUACGGCCGCCACUCGGGCAACAUGAGGAUCACCCAUGUUCCUCAU [ETA NP+V+V2 #24 +-Same Structure] | 67.4 nM | 356 nM | – | – | 388 nM
23 | CGGUCGGUCGGCCGGUGAUUAUGGGAUGAAGGAGCGUGGGAAGCUACAGGUAGGUCGCAUCCGAACCAUGAGGAUCACCCAUGGU [SSArg A #23Alt-Ms2 Mod] | 23.2 nM | 26.8 nM | 21.7 nM | 25.1 nM | 39.2 nM
24 | UGUAAAAUAACAGAUACCAGCGUGUUAUAAAACAUGAGGAUCACCCAUGUAGUGAUCAAGCGCCCUUGGCAGCUGGUAUUUUAUG [7.D] | 105 nM | 171 nM | 140 nM | – | –
25 | GCAUCCUAGUCGGCCGCCACUGCGGAUCCGGUUCUAGAUCCUUAACAUGAGGAUCACCCAUGUAGCAGGACCGGGACUAGGAUGC [(Trp1)-(TM)''-(TM)'-(Ms2)-(Trp2)_Design2] | 91 nM | 251 nM | 295 nM | 237 nM | 324 nM
26 | CGAACAUGAGGAUCACCCAUGUUAACCGAAGGAGCGGCGCAUAAGUCAGGUAGGUCGCGGUAGAUGAAAUAGAGCAGUGGUGACA [#01 Same State - Arginine A] | 24.4 nM | 45 nM | 27 nM | 31.7 nM | 32 nM
27 | AGCCAUGGAAACAUGGCGGCGGCUUGAGCGCGAGGACCGGUACGGCCGCCACUCGGGCAACAUGAGGAUCACCCAUGUUCCUCAU [ETA NP+V+V2 #19] | 64 nM | 104 nM | 190 nM | 113 nM | 75.7 nM
28 | AAUAAUAGGUGAUCUUGAGUCGUACCGUAACGAGGACCGGUACGGCCGCCACUCGAACAUGAGGAUCACCCAUGUAUGUAUGAUA [whbob_SS_trypto A_f6] | 48.6 nM | 128 nM | – | – | 276 nM
29 | AAUUAUUACGGAAGGAGCGUCUUUCGGCUCAAACAUGAGGAUCACCCAUGUGAUUUUGAAUGACAGGUAGGUCGCCGAUAUUUGA [JR_AAArginiB_Sub030] | 24.4 nM | 41.5 nM | 25.2 nM | 26.4 nM | 32.1 nM
30 | ACACGGAAUGAUGGAUCACCUCGUGAAUCACGAGGACCGGUACGGCCGCCACUCGAAAACCGUGACCUGUACGAAAAGUGCAGGA | 322 nM | 232 nM | 56.5 nM | 89.7 nM | 250 nM
31 | CAUACUUUAGUAUGACGUGUGGGCAGUGAUACCAGAUACGAAAGUAUCCCUUGGCAGCACAACAUGAGGAUCACCCAUGUAAUUA [Theophylline A 1] | 21.9 nM | 26.6 nM | 23.1 nM | – | –
32 | AUCUCGUUCAAUAUACCGCCUUGACUAGAUACCAGCAUGGACCCAUGCCCUUGGCAGCUGGACAUGAGGAUCACCCAUGUUUCAG [SSTheo A #27] | 10.7 nM | 14.8 nM | 10.8 nM | – | –
33 | AAUAUUAUGUCGGCCGCCACUUCCCACAAGAGGUGCCUGCACCCACAUGAGGAUCACCCAUGUCGAAGGACCGGGACGCUCAAUU [theeternabot_sameState_MS2_Trp_B_35] | 20.5 nM | 23.6 nM | – | – | 21.6 nM
34 | ACUAGAGGUGGAAGGAGCGGGAGACAUGAGGAUCACAUGAGGAUCACCCAUGUAGGAUCAUCCCAGGUAGGUCGCCAUGUCGAAA [,mmlmullin] | 46 nM | 255 nM | 293 nM | 979 nM | 456 nM
35 | UGGCGAGAAGGAAGGAGCGUCAGCUGAGUUACAUGAGGAUCACCCAUGUUGCACAUAGUGUGACAGGUAGGUCGCCUUCUGCCCU [SS-ArgB19] | 38 nM | 63.7 nM | 37.6 nM | 44.1 nM | 37.5 nM
36 | GGCACCAGGCGAAGGAGCGUGAAGACAUGAGGAUCACCCAUGUAGAGGCCCGGACAGGGUUCGCAGGUAGGUCGCGCCUGGUGCC [#1 Same State - Arginine B Attempt #9 (HarryS)] | 22.9 nM | 40.6 nM | 13.5 nM | 16.2 nM | 26.8 nM
37 | GGAGUCGUCACGGCCGCCACUGCGGUGGUGUGACAUGAGGAUCACCCAUGUUGUCAUGCGGCCCUUAGGACCGGGUGUCGGUUCC [#1 Exclusion - Tryptophan B Attempt #23 (HarryS)] | 57.1 nM | 85.1 nM | – | – | 78.3 nM
38 | CGUGCUAGGGCGGCCGCCACUGUGGCUACGGUACAUGAGGAUCACCCAUGUUUGUGGUUGAUCUACAGGACCGGGCCCUGGCACG [Radiaerdi] | 131 nM | 442 nM | 280 nM | 107 nM | 756 nM
39 | CGAUGAUCGAGGGAUACCAGAAAUGGUAUUCCUUUAUUUCUUACAUGAGGAUCACCCAUGUUCCCUUGGCAGCUUUUGAUCAUCG [ETHB #7] | 60.5 nM | 86.1 nM | 74.6 nM | – | –
